Test results: US20210309747A1

Molecular target: human PD-L1 on Raji cells (human) (UniProt Q9NZQ7)
Test: flow cytometry blocking assay on Raji-PDL1 cells; blocked ligand: biotinylated Avi- and His-tag human PD1 protein at 3 ug/mL, Streptavidin-PE, MFI; isotype control, the fitted curve falls only from MFI about 320 to about 240

human PD-L1 on Raji cells (human), sequence (Q9NZQ7 19-290): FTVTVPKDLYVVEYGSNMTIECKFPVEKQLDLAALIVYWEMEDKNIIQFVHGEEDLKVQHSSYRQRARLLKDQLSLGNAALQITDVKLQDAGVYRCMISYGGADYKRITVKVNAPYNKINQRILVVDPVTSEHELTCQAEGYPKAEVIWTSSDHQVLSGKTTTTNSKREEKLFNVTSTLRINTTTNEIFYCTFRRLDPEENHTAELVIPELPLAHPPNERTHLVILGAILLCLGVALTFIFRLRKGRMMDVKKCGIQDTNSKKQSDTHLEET

IgG (antibody)
EC50: 0.45 nM
